Experimental findings from paper PMC2894858 (PLoS ONE, 2010) are described below.

The target in this test is botulinum neurotoxin serotype A light chain (Clostridium botulinum, UniProt P0DPI1 1-420). In words: HPLC-based protease inhibition assay (Dixon plots). The note with it: both partners purified.

Non-standard residues stand in square brackets, D forms with d. No end group written: not given here. Aib = CC(C)(N)C(=O)O

Sequence of botulinum neurotoxin serotype A light chain (P0DPI1 1-420): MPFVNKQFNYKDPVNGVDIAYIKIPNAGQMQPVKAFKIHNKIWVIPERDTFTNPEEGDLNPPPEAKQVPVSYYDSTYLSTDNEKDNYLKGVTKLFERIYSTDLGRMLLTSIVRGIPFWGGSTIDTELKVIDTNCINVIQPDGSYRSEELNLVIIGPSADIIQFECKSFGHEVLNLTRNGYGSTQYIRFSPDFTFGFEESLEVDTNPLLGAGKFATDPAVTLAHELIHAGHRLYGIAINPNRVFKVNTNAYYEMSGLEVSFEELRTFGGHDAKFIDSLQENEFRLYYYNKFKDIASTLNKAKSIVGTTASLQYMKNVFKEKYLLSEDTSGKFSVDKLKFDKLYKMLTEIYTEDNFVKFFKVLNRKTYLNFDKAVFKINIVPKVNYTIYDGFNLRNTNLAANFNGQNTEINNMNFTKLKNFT

One may read the Ki as a measure of affinity in units of concentration, obtained from inhibition or displacement. Lower therefore signals higher affinity. As to RRF[Aib]AML-NH2 [JTH-NB72-39], the Ki came to 638 nM.
On to RRW[Aib]AML-NH2 (not fully specified) [JTH-NB72-38], for which the inhibition constant Ki was 990 nM.
